The supplement of paper PMC7877785
± gives the uncertainty stated by the source.

Assay: self-splicing fitness, log relative to wild type (ln ratio); higher = more splicing; Tetrahymena group I intron in knt gene, E. coli kanamycin selection, DiMSum; sequences stand for … in CUCUCU…GGAGGGAAAAGUUAUCAGGCAUGCACCUGGUAGCUAGUCUUUAAACCAAUAGAUUGCAUCGGUUUAAAAGGCAAGACCGUCAAAUUGCGGGAAAGGGGUCAACAGCCGUUCAGUACCAAGUCUCAGGGGAAACUUUGAGAUGGCCUUGCAAAGGGUAUGGUAAUAAGCUGACGGACAUGGUCCUAACCACGCAGCCAAGUCCUAAGUCAACAGAUCUUCUGUUGAUAUGGAUGCAGUUCACAGACUAAAUGUCGGUCGGGGAAGAUGUAUUCUUCUCAUAAGAUAUAGUCGGACCUCUCCUUAAUGGGAGCUAGCGGAUGAAGUGAUGCAACACUGGAGCCGCUGGGAACUAAUUUGUAUGCGAAAGUAUAUUGAUUAGUUUUGGAGUACUCGUGGUCG
How it was run: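 Colonies from six replicate transformations of E. coli BL21(DE3) were pooled and amplicon-sequenced on an Illumina HiSeq 2500. The library placed an intron with all eight P1ex-region nucleotides randomised inside the knt kanamycin-resistance gene on pET-22b(+), and cells grew overnight at 37°C or 30°C on LB agar with or without 25 μg/mL kanamycin (plus 100 μg/mL carbenicillin, 50 μM IPTG, 0.2% rhamnose). Fitness is the DiMSum error-weighted combination of wild-type-normalised replicate fold changes, kanamycin versus none.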

Row | Sequence | self-splicing fitness (ln) (30 °C) | self-splicing fitness (ln) (37 °C)
1 | CUCCAGCAAUAUUACGGUGU | -4.11 ± 0.15 | -2.28 ± 0.13
2 | CUCCAGCAAUAUUACGUGAG | -3.61 ± 0.15 | -2.62 ± 0.18
3 | CUCCAGCAAUAUUACGUGGU | -3.42 ± 0.12 | -3.19 ± 0.15
4 | CUCGAGCAAUAUUACGAAAC | -3.52 ± 0.33 | -1.99 ± 0.33
5 | CUCGAGCAAUAUUACGAAAG | -2.85 ± 0.14 | -1.58 ± 0.15
6 | CUCGAGCAAUAUUACGACAG | -1.76 ± 0.15 | -1.42 ± 0.21
7 | CUCGAGCAAUAUUACGACUC | -4.16 ± 0.22 | -2.61 ± 0.24
8 | CUCGAGCAAUAUUACGAGGG | -3.45 ± 0.28 | -1.83 ± 0.35
9 | CUCGAGCAAUAUUACGAUAC | – | -2.64 ± 0.36
10 | CUCGAGCAAUAUUACGAUGC | -4.39 ± 0.46 | -3 ± 0.47
11 | CUCGAGCAAUAUUACGAUUC | -3.29 ± 0.47 | –
12 | CUCGAGCAAUAUUACGCAAU | -3.57 ± 0.2 | –
13 | CUCGAGCAAUAUUACGCAUG | -3.27 ± 0.2 | -3.58 ± 0.42
14 | CUCGAGCAAUAUUACGCCAC | -2.89 ± 0.43 | -1.24 ± 0.43
15 | CUCGAGCAAUAUUACGCCCG | – | -2.74 ± 0.43
16 | CUCGAGCAAUAUUACGCGAC | – | -0.0316 ± 0.34
17 | CUCGAGCAAUAUUACGGAGG | -2.97 ± 0.1 | -1.46 ± 0.097
18 | CUCGAGCAAUAUUACGGAUG | -2.21 ± 0.13 | -1.46 ± 0.17
19 | CUCGAGCAAUAUUACGGGCG | -2.65 ± 0.17 | -2.1 ± 0.25
20 | CUCGAGCAAUAUUACGGGGG | -4.18 ± 0.42 | –
21 | CUCGAGCAAUAUUACGGUCC | -3 ± 0.36 | -2.33 ± 0.45
22 | CUCGAGCAAUAUUACGGUGC | -2.95 ± 0.25 | -2.88 ± 0.31
23 | CUCGAGCAAUAUUACGGUGG | -2.25 ± 0.13 | -1.75 ± 0.17
24 | CUCGAGCAAUAUUACGGUGU | -2.83 ± 0.33 | -2.7 ± 0.31
25 | CUCGAGCAAUAUUACGUCCA | -1.95 ± 0.25 | -3.15 ± 0.47

Row | Sequence | self-splicing fitness (ln) (30 °C) | self-splicing fitness (ln) (37 °C)
26 | CUCGAGCAAUAUUACGUUGC | -3.84 ± 0.42 | -3.45 ± 0.37
27 | CUCGAGCAAUAUUACGUUUU | -3.2 ± 0.13 | -2.1 ± 0.17
28 | CUCUAGCAAUAUUACGACGU | – | -3.03 ± 0.22
29 | CUCUAGCAAUAUUACGACUG | -1.68 ± 0.15 | -0.621 ± 0.18
30 | CUCUAGCAAUAUUACGAUCC | -2.43 ± 0.31 | -2.11 ± 0.3
31 | CUCUAGCAAUAUUACGCAGU | -4.21 ± 0.24 | -4.07 ± 0.23
32 | CUCUAGCAAUAUUACGCAUG | -4.85 ± 0.41 | -3.07 ± 0.3
33 | CUCUAGCAAUAUUACGCCAA | -2.35 ± 0.47 | -2.31 ± 0.45
34 | CUCUAGCAAUAUUACGCCAC | -2.66 ± 0.28 | –
35 | CUCUAGCAAUAUUACGCGAC | -3.14 ± 0.24 | -2.75 ± 0.3
36 | CUCUAGCAAUAUUACGCGGG | -3.39 ± 0.18 | -1.41 ± 0.14
37 | CUCUAGCAAUAUUACGCUAU | -3.8 ± 0.39 | -2.79 ± 0.3
38 | CUCUAGCAAUAUUACGGCUU | -3.45 ± 0.32 | -3.52 ± 0.42
39 | CUCUAGCAAUAUUACGGUCA | -3.27 ± 0.29 | -3.17 ± 0.37
40 | CUCUAGCAAUAUUACGUAAG | -1.57 ± 0.11 | -0.426 ± 0.15
41 | CUCUAGCAAUAUUACGUACU | -3.33 ± 0.27 | -2.39 ± 0.25
42 | CUCUAGCAAUAUUACGUCGU | -3.66 ± 0.26 | -4.15 ± 0.36
43 | CUCUAGCAAUAUUACGUCUG | -2.34 ± 0.12 | -2.27 ± 0.18
44 | CUCUAGCAAUAUUACGUGAU | -3.45 ± 0.15 | -3.92 ± 0.24
45 | CUCUAGCAAUAUUACGUGUG | -2.93 ± 0.11 | -2.89 ± 0.14
46 | CUCUAGCAAUAUUACGUUGC | -3.71 ± 0.3 | -3.08 ± 0.35
47 | CUGAAGCAAUAUUACGAUAU | -3.39 ± 0.16 | -1.27 ± 0.19
48 | CUGAAGCAAUAUUACGAUCG | 0.00255 ± 0.12 | -0.0487 ± 0.13
49 | CUGAAGCAAUAUUACGCGAG | -0.671 ± 0.088 | -0.527 ± 0.11
50 | CUGAAGCAAUAUUACGCGAU | -0.358 ± 0.071 | 0.0463 ± 0.086
